Results published in patent US12630600B2 (MEDIMMUNE LIMITED, priority 2022, dated 2026).
Starred links: 1 amine or outer side, 2 acyl side, 3 side chain; linkers in the order of their positions; H or OH if unused. Non-standard residues stand in square brackets, D forms with d. Groups on a side chain read outwards from the residue. No end group written: not given here. *: point of attachment. C18 diacid = O=C(O)CCCCCCCCCCCCCCCCC(=O)*; γGlu = O=C(O)[C@H](CCC(=O)[*:2])N[*:1]; αMeF = C[C@](N)(Cc1ccccc1)C(=O)O; AEEA = NCCOCCOCC(=O)O; Aib = CC(C)(N)C(=O)O

B1: Peptide 422 (peptide)
peptide: H[Aib]QGTFTSDVSK[αMeF]LDRK([AEEA-AEEA-γGlu-C18 diacid])RAQDFVRWLL[Aib]TE-NH2
modifications: N-terminus assumed
SMILES: CC(C)C[C@H](NC(=O)[C@H](Cc1c[nH]c2ccccc12)NC(=O)[C@H](CCCNC(=N)N)NC(=O)[C@@H](NC(=O)[C@H](Cc1ccccc1)NC(=O)[C@H](CC(=O)O)NC(=O)[C@H](CCC(N)=O)NC(=O)[C@H](C)NC(=O)[C@H](CCCNC(=N)N)NC(=O)[C@H](CCCCNC(=O)COCCOCCNC(=O)COCCOCCNC(=O)CC[C@H](NC(=O)CCCCCCCCCCCCCCCCC(=O)O)C(=O)O)NC(=O)[C@H](CCCNC(=N)N)NC(=O)[C@H](CC(=O)O)NC(=O)[C@H](CC(C)C)NC(=O)[C@](C)(Cc1ccccc1)NC(=O)[C@H](CCCCN)NC(=O)[C@H](CO)NC(=O)[C@@H](NC(=O)[C@H](CC(=O)O)NC(=O)[C@H](CO)NC(=O)[C@@H](NC(=O)[C@H](Cc1ccccc1)NC(=O)[C@@H](NC(=O)CNC(=O)[C@H](CCC(N)=O)NC(=O)C(C)(C)NC(=O)[C@@H](N)Cc1c[nH]cn1)[C@@H](C)O)[C@@H](C)O)C(C)C)C(C)C)C(=O)N[C@@H](CC(C)C)C(=O)NC(C)(C)C(=O)N[C@H](C(=O)N[C@@H](CCC(=O)O)C(N)=O)[C@@H](C)O
B2: Peptide 423 (peptide)
peptide: H[Aib]QGTFTSDVSK[αMeF]LDKK([AEEA-AEEA-γGlu-C18 diacid])RAQDFVRWLK[Aib]TE-OH
modifications: N-terminus assumed
SMILES: CC(C)C[C@H](NC(=O)[C@H](Cc1c[nH]c2ccccc12)NC(=O)[C@H](CCCNC(=N)N)NC(=O)[C@@H](NC(=O)[C@H](Cc1ccccc1)NC(=O)[C@H](CC(=O)O)NC(=O)[C@H](CCC(N)=O)NC(=O)[C@H](C)NC(=O)[C@H](CCCNC(=N)N)NC(=O)[C@H](CCCCNC(=O)COCCOCCNC(=O)COCCOCCNC(=O)CC[C@H](NC(=O)CCCCCCCCCCCCCCCCC(=O)O)C(=O)O)NC(=O)[C@H](CCCCN)NC(=O)[C@H](CC(=O)O)NC(=O)[C@H](CC(C)C)NC(=O)[C@](C)(Cc1ccccc1)NC(=O)[C@H](CCCCN)NC(=O)[C@H](CO)NC(=O)[C@@H](NC(=O)[C@H](CC(=O)O)NC(=O)[C@H](CO)NC(=O)[C@@H](NC(=O)[C@H](Cc1ccccc1)NC(=O)[C@@H](NC(=O)CNC(=O)[C@H](CCC(N)=O)NC(=O)C(C)(C)NC(=O)[C@@H](N)Cc1c[nH]cn1)[C@@H](C)O)[C@@H](C)O)C(C)C)C(C)C)C(=O)N[C@@H](CCCCN)C(=O)NC(C)(C)C(=O)N[C@H](C(=O)N[C@@H](CCC(=O)O)C(=O)O)[C@@H](C)O
B3: Peptide 424 (peptide)
peptide: H[Aib]QGTFTSDVSK[αMeF]LDKK([AEEA-AEEA-γGlu-C18 diacid])RAQDFVRWLL[Aib]TK-OH
modifications: N-terminus assumed
SMILES: CC(C)C[C@H](NC(=O)[C@H](Cc1c[nH]c2ccccc12)NC(=O)[C@H](CCCNC(=N)N)NC(=O)[C@@H](NC(=O)[C@H](Cc1ccccc1)NC(=O)[C@H](CC(=O)O)NC(=O)[C@H](CCC(N)=O)NC(=O)[C@H](C)NC(=O)[C@H](CCCNC(=N)N)NC(=O)[C@H](CCCCNC(=O)COCCOCCNC(=O)COCCOCCNC(=O)CC[C@H](NC(=O)CCCCCCCCCCCCCCCCC(=O)O)C(=O)O)NC(=O)[C@H](CCCCN)NC(=O)[C@H](CC(=O)O)NC(=O)[C@H](CC(C)C)NC(=O)[C@](C)(Cc1ccccc1)NC(=O)[C@H](CCCCN)NC(=O)[C@H](CO)NC(=O)[C@@H](NC(=O)[C@H](CC(=O)O)NC(=O)[C@H](CO)NC(=O)[C@@H](NC(=O)[C@H](Cc1ccccc1)NC(=O)[C@@H](NC(=O)CNC(=O)[C@H](CCC(N)=O)NC(=O)C(C)(C)NC(=O)[C@@H](N)Cc1c[nH]cn1)[C@@H](C)O)[C@@H](C)O)C(C)C)C(C)C)C(=O)N[C@@H](CC(C)C)C(=O)NC(C)(C)C(=O)N[C@H](C(=O)N[C@@H](CCCCN)C(=O)O)[C@@H](C)O
B4: Peptide 425 (peptide)
peptide: H[Aib]QGTFTSDVSK[αMeF]LDKK([AEEA-AEEA-γGlu-C18 diacid])RAQDFVRWLKA[Aib]G-OH
modifications: N-terminus assumed
SMILES: CC(C)C[C@H](NC(=O)[C@H](Cc1c[nH]c2ccccc12)NC(=O)[C@H](CCCNC(=N)N)NC(=O)[C@@H](NC(=O)[C@H](Cc1ccccc1)NC(=O)[C@H](CC(=O)O)NC(=O)[C@H](CCC(N)=O)NC(=O)[C@H](C)NC(=O)[C@H](CCCNC(=N)N)NC(=O)[C@H](CCCCNC(=O)COCCOCCNC(=O)COCCOCCNC(=O)CC[C@H](NC(=O)CCCCCCCCCCCCCCCCC(=O)O)C(=O)O)NC(=O)[C@H](CCCCN)NC(=O)[C@H](CC(=O)O)NC(=O)[C@H](CC(C)C)NC(=O)[C@](C)(Cc1ccccc1)NC(=O)[C@H](CCCCN)NC(=O)[C@H](CO)NC(=O)[C@@H](NC(=O)[C@H](CC(=O)O)NC(=O)[C@H](CO)NC(=O)[C@@H](NC(=O)[C@H](Cc1ccccc1)NC(=O)[C@@H](NC(=O)CNC(=O)[C@H](CCC(N)=O)NC(=O)C(C)(C)NC(=O)[C@@H](N)Cc1c[nH]cn1)[C@@H](C)O)[C@@H](C)O)C(C)C)C(C)C)C(=O)N[C@@H](CCCCN)C(=O)N[C@@H](C)C(=O)NC(C)(C)C(=O)NCC(=O)O
B5: Peptide 426 (peptide)
peptide: H[Aib]QGTFTSDVSK[αMeF]LDKK([AEEA-AEEA-γGlu-C18 diacid])RAQDFVRWLLR[Aib]K-OH
modifications: N-terminus assumed
SMILES: CC(C)C[C@H](NC(=O)[C@H](Cc1c[nH]c2ccccc12)NC(=O)[C@H](CCCNC(=N)N)NC(=O)[C@@H](NC(=O)[C@H](Cc1ccccc1)NC(=O)[C@H](CC(=O)O)NC(=O)[C@H](CCC(N)=O)NC(=O)[C@H](C)NC(=O)[C@H](CCCNC(=N)N)NC(=O)[C@H](CCCCNC(=O)COCCOCCNC(=O)COCCOCCNC(=O)CC[C@H](NC(=O)CCCCCCCCCCCCCCCCC(=O)O)C(=O)O)NC(=O)[C@H](CCCCN)NC(=O)[C@H](CC(=O)O)NC(=O)[C@H](CC(C)C)NC(=O)[C@](C)(Cc1ccccc1)NC(=O)[C@H](CCCCN)NC(=O)[C@H](CO)NC(=O)[C@@H](NC(=O)[C@H](CC(=O)O)NC(=O)[C@H](CO)NC(=O)[C@@H](NC(=O)[C@H](Cc1ccccc1)NC(=O)[C@@H](NC(=O)CNC(=O)[C@H](CCC(N)=O)NC(=O)C(C)(C)NC(=O)[C@@H](N)Cc1c[nH]cn1)[C@@H](C)O)[C@@H](C)O)C(C)C)C(C)C)C(=O)N[C@@H](CC(C)C)C(=O)N[C@@H](CCCNC(=N)N)C(=O)NC(C)(C)C(=O)N[C@@H](CCCCN)C(=O)O
B6: Peptide 427 (peptide)
peptide: H[Aib]QGTFTSDVSK[αMeF]LDTK([AEEA-AEEA-γGlu-C18 diacid])RARDFVQWLLE[Aib]G-NH2
modifications: N-terminus assumed
SMILES: CC(C)C[C@H](NC(=O)[C@H](Cc1c[nH]c2ccccc12)NC(=O)[C@H](CCC(N)=O)NC(=O)[C@@H](NC(=O)[C@H](Cc1ccccc1)NC(=O)[C@H](CC(=O)O)NC(=O)[C@H](CCCNC(=N)N)NC(=O)[C@H](C)NC(=O)[C@H](CCCNC(=N)N)NC(=O)[C@H](CCCCNC(=O)COCCOCCNC(=O)COCCOCCNC(=O)CC[C@H](NC(=O)CCCCCCCCCCCCCCCCC(=O)O)C(=O)O)NC(=O)[C@@H](NC(=O)[C@H](CC(=O)O)NC(=O)[C@H](CC(C)C)NC(=O)[C@](C)(Cc1ccccc1)NC(=O)[C@H](CCCCN)NC(=O)[C@H](CO)NC(=O)[C@@H](NC(=O)[C@H](CC(=O)O)NC(=O)[C@H](CO)NC(=O)[C@@H](NC(=O)[C@H](Cc1ccccc1)NC(=O)[C@@H](NC(=O)CNC(=O)[C@H](CCC(N)=O)NC(=O)C(C)(C)NC(=O)[C@@H](N)Cc1c[nH]cn1)[C@@H](C)O)[C@@H](C)O)C(C)C)[C@@H](C)O)C(C)C)C(=O)N[C@@H](CC(C)C)C(=O)N[C@@H](CCC(=O)O)C(=O)NC(C)(C)C(=O)NCC(N)=O
B7: Peptide 428 (peptide)
peptide: H[Aib]QGTFTSDVSK[αMeF]LDTK([AEEA-AEEA-γGlu-γGlu-C18 diacid])RARDFVQWLLE[Aib]G-NH2
modifications: N-terminus assumed
SMILES: CC(C)C[C@H](NC(=O)[C@H](Cc1c[nH]c2ccccc12)NC(=O)[C@H](CCC(N)=O)NC(=O)[C@@H](NC(=O)[C@H](Cc1ccccc1)NC(=O)[C@H](CC(=O)O)NC(=O)[C@H](CCCNC(=N)N)NC(=O)[C@H](C)NC(=O)[C@H](CCCNC(=N)N)NC(=O)[C@H](CCCCNC(=O)COCCOCCNC(=O)COCCOCCNC(=O)CC[C@H](NC(=O)CC[C@H](NC(=O)CCCCCCCCCCCCCCCCC(=O)O)C(=O)O)C(=O)O)NC(=O)[C@@H](NC(=O)[C@H](CC(=O)O)NC(=O)[C@H](CC(C)C)NC(=O)[C@](C)(Cc1ccccc1)NC(=O)[C@H](CCCCN)NC(=O)[C@H](CO)NC(=O)[C@@H](NC(=O)[C@H](CC(=O)O)NC(=O)[C@H](CO)NC(=O)[C@@H](NC(=O)[C@H](Cc1ccccc1)NC(=O)[C@@H](NC(=O)CNC(=O)[C@H](CCC(N)=O)NC(=O)C(C)(C)NC(=O)[C@@H](N)Cc1c[nH]cn1)[C@@H](C)O)[C@@H](C)O)C(C)C)[C@@H](C)O)C(C)C)C(=O)N[C@@H](CC(C)C)C(=O)N[C@@H](CCC(=O)O)C(=O)NC(C)(C)C(=O)NCC(N)=O

Each binder was assayed against human glucagon receptor (human, UniProt P47871) (assay: cell-based or functional assay).

Binder | cAMP production EC50 [nM]
B1 | 0.123
B2 | 2.22
B3 | 0.129
B4 | 0.827
B5 | 0.0612
B6 | 0.0472
B7 | 0.0105

What follows are binders tested against human GLP-1 receptor (human, UniProt P43220) (assay: cell-based or functional assay).

Binder | cAMP production EC50 [nM]
B1 | 0.0276
B2 | 0.0261
B3 | 0.0155
B4 | 0.0115
B5 | 0.0073
B6 | 0.0124
B7 | 0.0331
